From paper PMC11552376, “Specific binding between Arabidopsis thaliana phytochrome-interacting factor 3 (AtPIF3) bHLH and G-box originated prior to embryophyte emergence” (BMC Plant Biology, 2024)

Columns and labels:
[1] = target: T1, AtPIF3-bHLH R356A (Arabidopsis thaliana, UniProt O80536 340-397, R356A); experiment: ITC; error exceeds value; ITC: 30 mM HEPES, 125 mM NaCl, pH 7.5, 25 C, 400 uM protein into 40 uM DNA; fEMSA: 30 mM HEPES, 500 mM NaCl, pH 7.4, on ice 30 min, 3 uM probe, 10% native gel in 0.5x TBE at 4 C; conditions: protein: recombinant; tags: C-terminal His6; chain copies: 2; blunt
T1 sequence: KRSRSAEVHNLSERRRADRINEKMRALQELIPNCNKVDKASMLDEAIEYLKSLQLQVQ

[2] = target: T2, AtPIF3-bHLH H348A (Arabidopsis thaliana, UniProt O80536 340-397, H348A); experiment: ITC; binding curve unsaturated; ITC: 30 mM HEPES, 125 mM NaCl, pH 7.5, 25 C, 400 uM protein into 40 uM DNA; fEMSA: 30 mM HEPES, 500 mM NaCl, pH 7.4, on ice 30 min, 3 uM probe, 10% native gel in 0.5x TBE at 4 C; conditions: protein: recombinant; tags: C-terminal His6; chain copies: 2; blunt
T2 sequence: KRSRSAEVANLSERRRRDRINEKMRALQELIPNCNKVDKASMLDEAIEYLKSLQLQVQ

B1: G-box (PER2), ITC (dsDNA)
DNA 1: AGGAACACGTGACCC
DNA 2: GGGTCACGTGTTCCT
- Kd [1]: 106 ± 112 µM
- Kd [2]: 3.39 ± 0.275 µM
